The numbers were not newly measured in paper PMC6368066 (Neuromuscular disorders : NMD, 2018), which cites them from elsewhere.

Usually Kd stands for a measure of binding affinity in units of concentration.

Where no end group is shown, it is not given here.

One data set concerns the target Piezo 1 (UniProt E2JF22). In words: outside-out patch clamp. A general note: In patch-clamp work, channel activity is measured electrically.
In the next data set the test system is mdx muscles. The following applies: mdx muscles in vitro, 10 μM.
A further data set deals with dystrophin. The following applies: phase III trials, over 180 weeks.

Sequence of UniProt E2JF22 (E2JF22 whole entry): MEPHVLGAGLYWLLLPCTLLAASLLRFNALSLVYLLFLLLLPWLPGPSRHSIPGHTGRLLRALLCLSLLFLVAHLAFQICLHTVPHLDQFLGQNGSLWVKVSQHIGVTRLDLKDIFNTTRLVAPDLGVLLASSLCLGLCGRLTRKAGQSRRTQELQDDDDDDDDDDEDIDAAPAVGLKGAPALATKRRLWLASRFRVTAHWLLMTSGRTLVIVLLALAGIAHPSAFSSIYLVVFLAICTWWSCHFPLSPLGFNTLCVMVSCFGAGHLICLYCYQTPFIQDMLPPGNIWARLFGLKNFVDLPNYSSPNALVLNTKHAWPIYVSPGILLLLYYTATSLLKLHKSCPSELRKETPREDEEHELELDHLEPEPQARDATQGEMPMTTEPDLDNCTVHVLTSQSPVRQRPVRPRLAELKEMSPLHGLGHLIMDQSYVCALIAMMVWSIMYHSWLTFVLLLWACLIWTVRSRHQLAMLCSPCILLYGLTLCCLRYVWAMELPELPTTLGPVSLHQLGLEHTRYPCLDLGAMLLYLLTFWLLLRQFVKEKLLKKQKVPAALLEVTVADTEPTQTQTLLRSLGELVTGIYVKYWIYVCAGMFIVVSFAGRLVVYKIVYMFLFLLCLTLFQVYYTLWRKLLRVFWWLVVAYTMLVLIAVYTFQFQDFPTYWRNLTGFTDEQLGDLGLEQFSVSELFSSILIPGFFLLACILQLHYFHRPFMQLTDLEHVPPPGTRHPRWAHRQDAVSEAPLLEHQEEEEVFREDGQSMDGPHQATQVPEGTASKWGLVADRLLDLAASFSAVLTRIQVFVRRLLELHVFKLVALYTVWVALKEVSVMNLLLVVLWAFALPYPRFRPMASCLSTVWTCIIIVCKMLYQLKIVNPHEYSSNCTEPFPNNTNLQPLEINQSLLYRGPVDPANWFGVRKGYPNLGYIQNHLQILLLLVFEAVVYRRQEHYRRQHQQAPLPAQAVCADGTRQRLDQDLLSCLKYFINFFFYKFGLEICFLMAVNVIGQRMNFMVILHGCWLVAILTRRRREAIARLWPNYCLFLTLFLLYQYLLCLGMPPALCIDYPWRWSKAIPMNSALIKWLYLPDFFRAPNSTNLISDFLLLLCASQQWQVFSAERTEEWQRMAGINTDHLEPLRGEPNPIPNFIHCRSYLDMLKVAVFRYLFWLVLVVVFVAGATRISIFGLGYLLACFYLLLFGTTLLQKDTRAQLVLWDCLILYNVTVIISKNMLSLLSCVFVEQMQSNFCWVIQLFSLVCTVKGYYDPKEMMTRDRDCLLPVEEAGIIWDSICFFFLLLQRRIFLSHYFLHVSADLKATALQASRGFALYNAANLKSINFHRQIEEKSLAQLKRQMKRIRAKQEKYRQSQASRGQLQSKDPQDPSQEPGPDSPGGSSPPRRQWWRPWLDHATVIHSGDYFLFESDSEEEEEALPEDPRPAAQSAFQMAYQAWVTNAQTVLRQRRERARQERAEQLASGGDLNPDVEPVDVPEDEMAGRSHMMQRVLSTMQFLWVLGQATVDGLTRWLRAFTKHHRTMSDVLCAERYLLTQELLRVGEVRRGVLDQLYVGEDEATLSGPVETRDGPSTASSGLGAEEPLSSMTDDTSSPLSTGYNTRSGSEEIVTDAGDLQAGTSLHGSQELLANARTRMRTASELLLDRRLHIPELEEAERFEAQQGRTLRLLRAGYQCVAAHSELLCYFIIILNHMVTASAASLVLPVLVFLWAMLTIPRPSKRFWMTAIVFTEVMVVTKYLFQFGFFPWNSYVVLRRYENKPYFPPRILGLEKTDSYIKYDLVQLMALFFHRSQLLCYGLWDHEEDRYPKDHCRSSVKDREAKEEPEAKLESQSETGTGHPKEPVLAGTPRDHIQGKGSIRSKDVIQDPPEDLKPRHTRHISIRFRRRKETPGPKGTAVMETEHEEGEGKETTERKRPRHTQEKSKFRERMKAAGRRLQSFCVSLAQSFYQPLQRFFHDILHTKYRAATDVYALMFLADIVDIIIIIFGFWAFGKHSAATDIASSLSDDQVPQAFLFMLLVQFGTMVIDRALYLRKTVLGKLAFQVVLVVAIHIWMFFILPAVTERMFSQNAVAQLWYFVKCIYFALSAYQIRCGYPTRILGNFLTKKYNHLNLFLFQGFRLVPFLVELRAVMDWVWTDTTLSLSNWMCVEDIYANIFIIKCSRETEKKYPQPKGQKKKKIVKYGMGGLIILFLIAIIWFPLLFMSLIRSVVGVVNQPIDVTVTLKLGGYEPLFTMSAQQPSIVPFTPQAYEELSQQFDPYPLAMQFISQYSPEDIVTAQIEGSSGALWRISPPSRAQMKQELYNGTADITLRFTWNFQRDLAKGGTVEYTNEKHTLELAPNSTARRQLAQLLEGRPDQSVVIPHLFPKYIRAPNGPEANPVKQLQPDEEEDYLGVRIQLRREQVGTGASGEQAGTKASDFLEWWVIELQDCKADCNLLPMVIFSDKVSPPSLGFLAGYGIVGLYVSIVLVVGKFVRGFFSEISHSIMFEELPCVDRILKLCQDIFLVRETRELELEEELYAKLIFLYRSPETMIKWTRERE

On to GsMTx4 (from UniProt Q7YT39), for which the Kd with Piezo 1 was 500 nM.
Take “GsMTx4: 34 amino acid peptide that selectively inhibits nonselective cationic MSCs (GCLEFWWKCNPNDDKCCRPKLKCSKLFKLCNFSF; ends and bridges not checked; cysteine pairing not given here; UniProt Q7YT39 47-80, looked up)”: the contraction-induced dye accumulation result in the data set with mdx muscles is “reduced contraction-induced dye accumulation”.
Regarding eteplirsen, in the data set with dystrophin, the dystrophin levels is on record as ~ 1 % of normal dystrophin levels.
With glucagon, the serum half-life is 1 to 2 min.
